Here are results for two molecules from patent US20110300156A1 (Genmab, published 2011).

Assay [1] concerns the target T1, TFECDHis (extracellular domain of tissue factor, amino acid 1-251, with C-terminal His tag) (human, UniProt P13726 33-251).
T1 construct: range 1-251; The stated range 1-251 starts at residue 1 of NP-001984; also called extracellular domain of TF
The assay can be described thus: ELISA, coated TFECDHis, mean of 3. A digest of the protocol:
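Plates coated overnight at +4° C with 0.5 μg/mL TFECDHis in PBS pH 7.4, blocked with 2% chicken serum. Serially diluted HuMabs bound 1 h at RT with shaking, detected with HRP anti-human IgG. Binding curves fitted by sigmoidal dose-response with variable slope; anti-KLH HuMab served as negative control.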
On the technique in general: An ELISA detects its analyte on a solid surface through an enzyme-linked reagent.

Assay [2] deals with T2, human tissue factor (TF), membrane-bound on cells (human, UniProt P13726 33-295). The assay can be described thus: cell-based or functional assay.
Assay [3] concerns the target T2, human tissue factor (TF), …. Kind of assay: FACS, MDA-MB-231 cells, 30 µg/mL. A digest of the protocol:
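Binding curves came from non-linear sigmoidal variable-slope fits of flow cytometry signal. Serially diluted HuMab was applied for 30 minutes on ice in PBS buffer containing 0.1% BSA and 0.02% Na-azide, with PE anti-human IgGFc secondary added after washing, again 30 minutes on ice, dark.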

Assay [4] addresses T3, murine tissue factor (TF) on transfected HEK293F cells (murine, UniProt P20352 29-294).
T3 construct: whole, on cells; also called murine TF; TFmm
T3 sequence (looked up): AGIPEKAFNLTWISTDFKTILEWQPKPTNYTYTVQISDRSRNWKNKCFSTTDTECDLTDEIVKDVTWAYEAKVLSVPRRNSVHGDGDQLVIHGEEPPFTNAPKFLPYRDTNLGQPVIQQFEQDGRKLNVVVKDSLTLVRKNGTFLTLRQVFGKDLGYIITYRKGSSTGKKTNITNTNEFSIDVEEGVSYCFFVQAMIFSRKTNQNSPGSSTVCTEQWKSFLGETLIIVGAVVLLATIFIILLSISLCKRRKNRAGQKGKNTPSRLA
The assay can be described thus: FACS on transfected HEK293F cells, 30 µg/mL antibody [Figure 18; no figure label on the sheet]. Here is the method: (§1) Cells were resuspended in PBS (2×10⁶ cells/ml), put in 96-well V-bottom plates (50 μl/well). 50 μl of serially diluted HuMab in FACS buffer (PBS supplemented with 0.1% BSA and 0.02% Na-azide) was added to the cells and incubated for 30 minutes on ice. After washing three times with FACS buffer, 50 μl of phycoerythrin (PE)-conjugated goat anti-human IgGFc (Jackson ImmunoResearch), diluted 1:100 in FACS buffer, was added. After 30 minutes on ice (in the dark), cells were washed three times, and specific binding of the HuMabs was detected by flow cytometry on a FACSCalibur (BD Biosciences). HuMab-KLH was used as a negative control. Mouse anti-TF followed by PE-conjugated anti-mouse IgGFc was used as positive control. Binding curves were analyzed using non-linear regression (sigmoidal dose-response with variable slope) using GraphPad Prism V4.03 software (GraphPad Software, San Diego, Calif., USA).
To determine domains important for binding of anti-TF HuMabs to human TF, DNA shuffling was performed between human and murine TF. Shuffle constructs were prepared from DNA encoding human TF, by replacing human domains with murine domains and from DNA encoding murine TF by replacing murine domains with human domains.

The target in assay [5] is T2, human tissue factor (TF), …. The assay can be described thus: cell-based or functional assay. The source holds these as a separate data set.
Assay [6] shares this target. Kind of assay: FACS on SK-OV-3 cells (~60.000 TF molecules/cell) [panel SK-OV-3 cells]. Here is the method:
as §1
Binding of anti-TF HuMabs to membrane-bound TF on cell lines expressing different levels of TF was determined by FACS analysis, essentially as described supra. […] Fluorescence was measured on a FACSCantoII. Binding curves were analyzed essentially as described supra, using GraphPad Prism 5 software. The amount of TF molecules on cell lines was determined by Qifi kit (Dako, Glostrup, Denmark), according to the manufacturer's instructions.

In assay [7] the target is T3, murine tissue factor (TF) on …. Kind of assay: FACS on transfected HEK293F cells, 30 µg/mL antibody [panel M].
Assay [8] addresses T1, TFECDHis (extracellular domain of …). Kind of assay: SPR avidity format: TFECDHis immobilized, bivalent HuMab as analyte (printed as avidity nM). How it is done:
Antibody binding to TF was analyzed by surface plasmon resonance in a BIAcore 3000 (GE Healthcare). TFECDHis was used for the analysis. HuMab antibodies (500 resonance units) were immobilized on the CM-5 sensor chip according to the procedure recommended by the manufacturer. Briefly, after surface activation by EDC and NHS HuMab antibody was injected over the activated CM-5 surface in 10 mM sodium-acetate, pH ranging from 4.0 to 5.5 at 5 μl/min. followed by 1 M Ethanolamine for deactivation. Concentration series of TFECDHis in HBS-EP buffer were injected over the immobilized antibodies at a flow rate of 30 μl/min for 180 sec. Regeneration of the HuMab surface was performed by injection of 10 mM Glycine-HCl pH 2.0 or 10 mM sodium acetate pH 3.0. Kinetic analysis was performed using double reference subtraction and model 1:1 (langmuir) binding analysis.
TF (TFECDHis) binding to TF-specific HuMabs was determined essentially as described above, with TFECDHis being immobilized on the CM-5 sensor chip (300 resonance units), and concentration series of Humab antibodies used for kinetic analysis. Kinetic analysis was performed using double reference subtraction and model 1:1 (langmuir) binding analysis.

The target in assay [9] is T2, human tissue factor (TF), …. Kind of assay: FACS on AsPC-1 cells (~175.000 TF molecules/cell) [panel AsPC-1 cells]. How it is done:
as §1
Binding of anti-TF HuMabs to membrane-bound TF on cell lines expressing different levels of TF was determined by FACS analysis, essentially as described supra. Mouse anti-TF antibody followed by PE-conjugated anti-mouse IgGFc was used as a positive control. Fluorescence was measured on a FACSCantoII. Binding curves were analyzed essentially as described supra, using GraphPad Prism 5 software. The amount of TF molecules on cell lines was determined by Qifi kit (Dako, Glostrup, Denmark), according to the manufacturer's instructions.

B1: anti-TF HuMab 013 (antibody, V domains shown)
VH: EVQLVQSGAEVKKPGESLKISCKGSGYSFTSYWIGWVRQMPGKGLEWMGIIYPGDSDTRYSPSFQGQVTISADKSISTAYLQWSSLKASDTAMYYCARIHRGAGYSSSWPGAFDIWGQGTMVTVSS
VL: DIQMTQSPSSLSASVGDRVTITCRASQGISRWLAWYQQKPEKAPKSLIYAASSLQSGVPSRFSGSGSGTDFTLTISSLQPEDFATYYCQQYDSDPITFGQGTRLEIK
notes: Human monoclonal antibody from HuMab mice; also called HuMab-TF-13
The term EC50 denotes the concentration that produces a half-maximal response. Lower therefore signals a more potent agent. The molecule B1 registered an EC50 in assay [1] of 240 pM. Besides, in assay [2], the “% max inhibition of FVIIa induced ERK phosphorylation (A431)” value was 26% and the “IC50, inhibition of FVIIa induced ERK phosphorylation (A431)” value stood at 9110 pM. Also, the “Max MFI” value in [3] was 2450. In addition, the binding result in [4] was “no binding (tested: 30 µg/mL)”. In assay [5], the “EC50 of ADCC, Bx-PC3 cells” value stood at 70 pM and the “EC50 of ADCC, MDA-MB-231 cells” value came out at 60 pM.

B2: anti-TF HuMab 109 (antibody, V domains shown)
VH: QVQLVESGGGVVQPGRSLRLSCPASGFTFSIYAMHWVRQAPGKGLEWVAVVSNDGYNKYYADSVKGRFTISRDNSKDTLYLQMNSLRAEDTAVYYCARDGQLGRGYFDYWGQGTLVTVSS
VL: EIVLTQSPATLSLSPGERAILSCRASQSVSSYLAWYQQKPGQAPRLLIYDASNRATGIPARFSGSGSGTDFTLTISSLEPEDFAVYYCQQRSNWPLTFGGGTKVEIK
notes: Human monoclonal antibody from HuMab mice
As usually defined, the EC50 (read off the curve) is the concentration at which the effect is half-maximal. Molecule B2 returned an EC50 in assay [1] of 270 pM. Further, the “EC50 (read off the curve)” value in assay [6] was approximately 0.04 µg/mL. Besides, the binding result in [7] was “no binding (tested: 30 µg/mL)”. For the same molecule, the Kd in [8] stood at 10 pM. Moreover, in assay [2], the “% max inhibition of FVIIa induced ERK phosphorylation (A431)” value came to 72% and the “IC50, inhibition of FVIIa induced ERK phosphorylation (A431)” value was determined as 2420 pM. The “EC50 (read off the curve)” value in [9] is approximately 0.1 µg/mL. Also, the “Max MFI” value in [3] turned out to be 2050. In assay [5], the “EC50 of ADCC, Bx-PC3 cells” value amounted to 60 pM and the “EC50 of ADCC, MDA-MB-231 cells” value worked out at 120 pM.
